Experimental data reported in patent US20260226194A1 (GlaxoSmithKline, published 2026).
Numbering of substitutions follows the chain as printed. Numbers in names are those of the source.

Tests used:
[1] = target: T1, recombinant human PAPPA (pregnancy associated plasma protein-A) (human, UniProt Q13219 82-1627); assay: cell-based or functional assay
recombinant mouse PAPPA [2] = target: T2, recombinant mouse PAPPA (mouse, UniProt Q8R4K8 82-1624, limits assumed); assay: cell-based or functional assay
T2 sequence (Q8R4K8 82-1624 limits assumed): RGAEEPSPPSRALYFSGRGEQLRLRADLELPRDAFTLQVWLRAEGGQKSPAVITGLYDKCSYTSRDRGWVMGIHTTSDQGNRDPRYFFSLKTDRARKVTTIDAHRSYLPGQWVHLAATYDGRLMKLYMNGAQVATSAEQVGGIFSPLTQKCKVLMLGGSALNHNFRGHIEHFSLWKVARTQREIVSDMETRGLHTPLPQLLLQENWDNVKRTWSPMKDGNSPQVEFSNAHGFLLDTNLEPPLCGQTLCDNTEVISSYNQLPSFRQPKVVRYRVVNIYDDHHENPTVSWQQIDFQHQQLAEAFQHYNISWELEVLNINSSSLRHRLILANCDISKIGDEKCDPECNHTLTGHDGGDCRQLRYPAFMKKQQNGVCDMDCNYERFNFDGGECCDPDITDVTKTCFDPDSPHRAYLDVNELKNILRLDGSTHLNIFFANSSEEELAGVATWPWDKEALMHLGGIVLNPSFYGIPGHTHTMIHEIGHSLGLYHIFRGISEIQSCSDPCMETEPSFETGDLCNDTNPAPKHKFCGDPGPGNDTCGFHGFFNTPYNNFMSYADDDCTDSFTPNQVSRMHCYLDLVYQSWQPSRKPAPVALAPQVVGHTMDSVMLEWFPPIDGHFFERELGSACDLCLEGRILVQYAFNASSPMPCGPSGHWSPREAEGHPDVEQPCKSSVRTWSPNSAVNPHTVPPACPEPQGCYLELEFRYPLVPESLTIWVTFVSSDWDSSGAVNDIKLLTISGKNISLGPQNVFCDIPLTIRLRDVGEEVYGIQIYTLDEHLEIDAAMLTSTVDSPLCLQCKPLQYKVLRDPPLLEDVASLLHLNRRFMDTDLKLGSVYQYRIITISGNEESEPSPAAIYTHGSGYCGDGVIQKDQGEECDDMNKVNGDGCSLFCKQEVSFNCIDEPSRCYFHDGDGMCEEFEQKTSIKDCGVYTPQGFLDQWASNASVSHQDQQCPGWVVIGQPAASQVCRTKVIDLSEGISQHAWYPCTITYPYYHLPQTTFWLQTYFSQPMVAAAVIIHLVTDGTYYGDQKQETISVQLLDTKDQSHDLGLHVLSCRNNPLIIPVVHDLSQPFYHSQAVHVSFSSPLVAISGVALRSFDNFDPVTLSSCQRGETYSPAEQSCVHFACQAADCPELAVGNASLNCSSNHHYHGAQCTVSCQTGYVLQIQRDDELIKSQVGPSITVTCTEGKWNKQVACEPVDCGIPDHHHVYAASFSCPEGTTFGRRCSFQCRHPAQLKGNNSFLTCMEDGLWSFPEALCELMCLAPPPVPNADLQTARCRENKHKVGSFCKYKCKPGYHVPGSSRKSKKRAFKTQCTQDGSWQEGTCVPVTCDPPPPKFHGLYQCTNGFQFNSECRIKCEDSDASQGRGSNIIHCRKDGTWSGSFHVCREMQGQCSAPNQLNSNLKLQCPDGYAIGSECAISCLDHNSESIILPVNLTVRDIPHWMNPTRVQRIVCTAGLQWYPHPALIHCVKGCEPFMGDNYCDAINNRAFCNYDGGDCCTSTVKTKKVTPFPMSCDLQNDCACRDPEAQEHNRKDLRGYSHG

[3] = target: T3, recombinant cynomolgus monkey PAPPA (cynomolgus monkey, UniProt A0A2K5WE98 87-1619); assay: cell-based or functional assay
T3 sequence (A0A2K5WE98 entry or part of it): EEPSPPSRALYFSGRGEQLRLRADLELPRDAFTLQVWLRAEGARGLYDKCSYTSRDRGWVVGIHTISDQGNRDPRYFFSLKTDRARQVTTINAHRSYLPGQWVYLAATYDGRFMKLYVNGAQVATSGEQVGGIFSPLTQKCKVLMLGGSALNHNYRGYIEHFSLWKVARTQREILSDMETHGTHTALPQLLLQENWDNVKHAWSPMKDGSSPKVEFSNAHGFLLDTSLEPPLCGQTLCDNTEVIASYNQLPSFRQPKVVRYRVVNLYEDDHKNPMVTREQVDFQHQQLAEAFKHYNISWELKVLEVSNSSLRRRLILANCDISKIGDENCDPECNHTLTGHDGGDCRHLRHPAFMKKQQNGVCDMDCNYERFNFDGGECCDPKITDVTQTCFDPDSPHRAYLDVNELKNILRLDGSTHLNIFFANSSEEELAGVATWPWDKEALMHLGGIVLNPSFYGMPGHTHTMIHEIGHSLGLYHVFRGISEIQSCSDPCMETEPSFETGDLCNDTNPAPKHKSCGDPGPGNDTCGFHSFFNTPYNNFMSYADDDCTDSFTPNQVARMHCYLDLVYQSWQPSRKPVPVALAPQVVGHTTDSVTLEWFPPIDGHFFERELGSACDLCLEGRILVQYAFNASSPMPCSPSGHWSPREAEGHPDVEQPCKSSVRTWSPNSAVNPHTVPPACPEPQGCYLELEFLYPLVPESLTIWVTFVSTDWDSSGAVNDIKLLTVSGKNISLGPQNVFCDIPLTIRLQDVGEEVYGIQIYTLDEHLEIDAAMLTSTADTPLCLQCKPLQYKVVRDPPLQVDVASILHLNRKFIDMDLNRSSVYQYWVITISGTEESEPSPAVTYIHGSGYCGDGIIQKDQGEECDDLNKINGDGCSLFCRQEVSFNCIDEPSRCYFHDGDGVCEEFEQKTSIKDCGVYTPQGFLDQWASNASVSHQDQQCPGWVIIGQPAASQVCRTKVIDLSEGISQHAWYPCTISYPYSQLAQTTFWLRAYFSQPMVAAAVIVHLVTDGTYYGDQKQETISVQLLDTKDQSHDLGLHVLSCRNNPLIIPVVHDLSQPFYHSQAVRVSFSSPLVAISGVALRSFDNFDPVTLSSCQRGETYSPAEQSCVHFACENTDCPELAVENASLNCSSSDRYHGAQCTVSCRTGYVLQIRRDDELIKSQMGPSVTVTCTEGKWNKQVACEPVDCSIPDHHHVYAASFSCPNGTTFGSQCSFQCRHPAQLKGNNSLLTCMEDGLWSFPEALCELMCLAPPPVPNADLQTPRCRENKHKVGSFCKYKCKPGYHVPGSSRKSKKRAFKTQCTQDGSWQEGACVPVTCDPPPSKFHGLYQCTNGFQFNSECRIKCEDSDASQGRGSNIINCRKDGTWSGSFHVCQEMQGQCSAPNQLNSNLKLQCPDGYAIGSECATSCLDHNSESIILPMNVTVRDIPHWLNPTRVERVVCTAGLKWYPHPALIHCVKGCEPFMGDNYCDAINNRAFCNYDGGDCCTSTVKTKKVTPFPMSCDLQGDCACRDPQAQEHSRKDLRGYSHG

[4] = target: T4, endogenous human PAPPA natively secreted by human cells (A549; 9-7) (human, UniProt Q13219 82-1627); assay: cell-based or functional assay
T4 sequence (Q13219 82-1627 limits assumed): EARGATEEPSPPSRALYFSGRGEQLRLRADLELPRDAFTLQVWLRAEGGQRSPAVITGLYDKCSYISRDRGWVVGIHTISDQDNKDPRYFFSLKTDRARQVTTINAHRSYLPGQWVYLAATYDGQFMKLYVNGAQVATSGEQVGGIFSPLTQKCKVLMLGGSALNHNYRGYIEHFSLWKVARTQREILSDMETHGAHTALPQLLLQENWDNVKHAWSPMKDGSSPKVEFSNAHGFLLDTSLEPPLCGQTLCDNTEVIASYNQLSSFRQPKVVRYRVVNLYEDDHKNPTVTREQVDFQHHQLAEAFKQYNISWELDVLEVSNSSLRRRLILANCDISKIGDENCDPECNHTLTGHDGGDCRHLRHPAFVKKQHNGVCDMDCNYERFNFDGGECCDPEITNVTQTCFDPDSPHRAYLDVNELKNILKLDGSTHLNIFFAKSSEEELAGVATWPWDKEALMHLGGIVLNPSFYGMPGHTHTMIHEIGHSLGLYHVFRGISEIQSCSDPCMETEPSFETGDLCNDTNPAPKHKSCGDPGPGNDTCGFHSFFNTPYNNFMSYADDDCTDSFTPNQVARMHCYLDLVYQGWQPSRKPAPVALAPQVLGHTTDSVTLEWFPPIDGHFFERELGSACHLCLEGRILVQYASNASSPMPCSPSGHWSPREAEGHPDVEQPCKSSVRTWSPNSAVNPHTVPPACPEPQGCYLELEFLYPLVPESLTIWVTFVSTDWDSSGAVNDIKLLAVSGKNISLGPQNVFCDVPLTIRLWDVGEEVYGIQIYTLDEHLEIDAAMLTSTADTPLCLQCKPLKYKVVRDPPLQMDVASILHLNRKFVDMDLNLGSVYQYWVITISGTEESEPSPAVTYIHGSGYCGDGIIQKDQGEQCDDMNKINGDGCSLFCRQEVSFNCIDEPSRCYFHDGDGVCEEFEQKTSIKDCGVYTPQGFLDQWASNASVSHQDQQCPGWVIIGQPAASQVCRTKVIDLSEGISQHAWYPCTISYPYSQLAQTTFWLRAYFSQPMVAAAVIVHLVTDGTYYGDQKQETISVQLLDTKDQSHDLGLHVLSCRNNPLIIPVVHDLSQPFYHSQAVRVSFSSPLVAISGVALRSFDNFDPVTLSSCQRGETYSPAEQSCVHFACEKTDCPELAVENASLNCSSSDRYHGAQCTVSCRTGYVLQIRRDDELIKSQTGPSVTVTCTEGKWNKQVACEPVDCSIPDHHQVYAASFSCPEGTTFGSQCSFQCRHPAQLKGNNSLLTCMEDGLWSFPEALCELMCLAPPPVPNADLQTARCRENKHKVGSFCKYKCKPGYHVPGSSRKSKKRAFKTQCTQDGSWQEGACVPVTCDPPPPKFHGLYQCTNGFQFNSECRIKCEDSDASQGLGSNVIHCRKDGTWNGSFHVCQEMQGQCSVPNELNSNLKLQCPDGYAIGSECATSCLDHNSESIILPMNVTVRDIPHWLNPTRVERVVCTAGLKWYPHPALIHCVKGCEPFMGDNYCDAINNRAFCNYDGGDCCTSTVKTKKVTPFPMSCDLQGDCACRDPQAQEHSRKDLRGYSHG

[5] = target: T1, recombinant human PAPPA (pregnancy …); assay: cell-based or functional assay; remark: listed apart in the source
[6] = target: T1, recombinant human PAPPA (pregnancy …); assay: cell-based or functional assay; remark: listed apart in the source
[7] = target: T4, endogenous human PAPPA natively …; assay: cell-based or functional assay; remark: listed apart in the source
recombinant mouse PAPPA [8] = target: T2, recombinant mouse PAPPA; assay: SPR (Biacore 8K+, captured mAb, 37 C); data not shown
rat PAPPA = rat PAPPA (rat, UniProt A0ABK0LMY4 80-1624); assay: as above
[9] = target: T3, recombinant cynomolgus monkey PAPPA; assay: SPR, Biacore 8K+, mAb captured on PrismA chip, PAPPA as analyte, 37 C, mean of n=3
Method: (§1) Binding of TPP12744 to recombinant human, cynomolgus monkey and rabbit PAPPA was assessed using capture kinetics method on BIACORE 8K+ (Cytiva) SPR instrument. The antibodies, including controls, were captured on PrismA biosensor surface (Cytiva) at injection rate of 10 μl/min. Analytes were injected at injection rate of 30 μl/min over the captured antibodies as a concentration series including eight 2× serial dilutions with the highest concentration of 32 nM. Association phase was 160 seconds, followed by a dissociation phase of 600 seconds. Buffer only (OnM analyte) injection was used to double reference the binding curves. Regeneration of the chip surface between cycles was carried out using 10 mM Glycine pH 1.5. The assay was run at 37° C. in HBS-EP+ buffer with 0.1% BSA to minimize the nonspecific binding of the analytes to the chip surface. TPP12744 was analyzed as three independently prepared replicates.
(§2) The final screening process was conducted using the following criteria. Firstly, antibodies were checked for affinity to human PAPPA (method #4). Only antibodies with low nanomolar affinity for human PAPPA were retained. For one antibody (TPP12744) binding to PAPPA was assessed at 37° C. using the methodology described in Example 1, method #6.

[10] = target: human PAPPA (Common variant) (human); assay: as above
Method: as §1, §2

[11] = target: T1, recombinant human PAPPA (pregnancy …); assay: as above
Method: as §1, §2

[12] = target: T4, endogenous human PAPPA natively …; assay: cell-based or functional assay; remark: listed apart in the source
[13] = target: T1, recombinant human PAPPA (pregnancy …); assay: cell-based or functional assay; remark: listed apart in the source

T1 sequence (Q13219 82-1627 limits assumed): as above

B1: TPP-12683 (antibody, human IgG1, kappa, V domains shown)
VH: QLQLQESGPGLVKPSETLSLTCTVSGGSISSSSYNWGWIRQPPGKGLEWIGSISSSGSTYFNPSLKSRVTISVDTSKNQFSLKLSSVTAADTAVYYCARSGYRPSFYAMDAWGQGTTVTVSS
VL: DIQLTQSPSSVSASVGDRVTITCRASQDISYWLAWYQQKPGKAPKLLIYAASSLQSGVPSRFSGSGSGTDFTLTISSLQPEDFATYYCQQAYLLHTFGGGTKVEIKR
- PAPP-A cleavage of IGFBP-4 Mean pIC50 [1]: 8.8 pIC50
- rec. Mouse PAPP-A IGFBP4 pIC50 (G-401 pAKT assay) (recombinant mouse PAPPA [2]): 8.88 pIC50
- rec. Cyno PAPP-A IGFBP4 pIC50 (G-401 pAKT assay) [3]: 8.48 pIC50
- A549 cells endogenous human PAPP-A pIC50 (A549 pAKT assay) [4]: 8.44 pIC50
- rec. Human PAPP-A IGFBP4 pIC50 (G-401 pAKT assay) [5]: 8.84 pIC50
- rec. Human PAPP-A IGFBP5 pIC50 (G-401 pAKT assay) [5]: 8.81 pIC50
- PAPP-A cleavage of IGFBP-5 Mean pIC50 [6]: 8.69 pIC50

B2: TPP-12681 (antibody, human IgG1, kappa, V domains shown)
VH: EVQLVQSGAEVKKPGESLKISCKGSGYSFTSYWTGWVRQAPGKGLEWMGIIYPGGSVARYSPSFQGQVTISADKSISTAYLQWSSLKASDTAVYYCARGPLRSDYPDVWGQGTMVTVSS
VL: EIVMTQSPATLSVSPGERATLSCRASQSVGSYLAWYQQKPGQAPRLLIYRGSTRATGIPARFSGSGSGTEFTLTISSLQSEDFAVYYCQQPYVWPITFGGGTKVEIKR
- PAPP-A cleavage of IGFBP-4 Mean pIC50 [1]: 10.1 pIC50
- rec. Mouse PAPP-A IGFBP4 pIC50 (G-401 pAKT assay) (recombinant mouse PAPPA [2]): 9.51 pIC50
- rec. Cyno PAPP-A IGFBP4 pIC50 (G-401 pAKT assay) [3]: 9.46 pIC50
- A549 cells endogenous human PAPP-A pIC50 (A549 pAKT assay) [4]: 9.7 pIC50
- rec. Human PAPP-A IGFBP4 pIC50 (G-401 pAKT assay) [5]: 9.57 pIC50
- rec. Human PAPP-A IGFBP5 pIC50 (G-401 pAKT assay) [5]: 9.68 pIC50
- EC50 (read off the curve) [7]: ~100 pM

B3: TPP-12821 (antibody, human IgG1, kappa, V domains shown)
VH: B2 VH with Y32D, T34I, V57D, A58T, Q65R, P106V
VL: B2 VL with Y32N, G51A
- PAPP-A cleavage of IGFBP-4 Mean pIC50 [1]: 10.5 pIC50
- rec. Mouse PAPP-A IGFBP4 pIC50 (G-401 pAKT assay) (recombinant mouse PAPPA [2]): 9.28 pIC50
- rec. Cyno PAPP-A IGFBP4 pIC50 (G-401 pAKT assay) [3]: 9.85 pIC50
- A549 cells endogenous human PAPP-A pIC50 (A549 pAKT assay) [4]: 9.5 pIC50
- rec. Human PAPP-A IGFBP4 pIC50 (G-401 pAKT assay) [5]: 9.45 pIC50
- rec. Human PAPP-A IGFBP5 pIC50 (G-401 pAKT assay) [5]: 9.04 pIC50
- PAPP-A cleavage of IGFBP-5 Mean pIC50 [6]: 9.1 pIC50

B4: TPP-12743 (antibody, human IgG1, kappa, V domains shown)
VH: QVQLVQSGAEVKKPGASVKVSCKASGYTFTSYAMHWVRQAPGQRLEWMGWMNAGTGATKSSQKFQGRVTITRDTSASTAYMELSSLRSEDTAVYYCARGPSLETPTTFGMDVWGQGTTVTVSS
VL: DIQMTQSPSSVSASVGDRVTITCRASQGISRWLAWYQQKPGKAPKLLIYAASSLQSGVPSRFSGSGSGTDFTLTISSLQPEDFATYYCQQENAYPFTFGGGTKVEIKR
- PAPP-A cleavage of IGFBP-4 Mean pIC50 [1]: 10 pIC50
- rec. Cyno PAPP-A IGFBP4 pIC50 (G-401 pAKT assay) [3]: 10 pIC50
- A549 cells endogenous human PAPP-A pIC50 (A549 pAKT assay) [4]: 9.76 pIC50
- rec. Human PAPP-A IGFBP4 pIC50 (G-401 pAKT assay) [5]: 9.36 pIC50
- rec. Human PAPP-A IGFBP5 pIC50 (G-401 pAKT assay) [5]: 9.66 pIC50
- PAPP-A cleavage of IGFBP-5 Mean pIC50 [6]: 10.4 pIC50

B5: TPP-12744 (antibody, human IgG1, kappa, V domains shown)
VH: B4 VH with L102M
VL: B4 VL
notes: human IgG1/kappa, Fc-disabled (L235A, G237A)
- PAPP-A cleavage of IGFBP-4 Mean pIC50 [1]: 10 pIC50
- binding result (recombinant mouse PAPPA [8]): no binding
- binding result (rat PAPPA): no binding
- rec. Cyno PAPP-A IGFBP4 pIC50 (G-401 pAKT assay) [3]: 9.56 pIC50
- A549 cells endogenous human PAPP-A pIC50 (A549 pAKT assay) [4]: 9.49 pIC50
- rec. Human PAPP-A IGFBP4 pIC50 (G-401 pAKT assay) [5]: 9.46 pIC50
- rec. Human PAPP-A IGFBP5 pIC50 (G-401 pAKT assay) [5]: 9.81 pIC50
- Kd [9]: 161 pM
- koff [9]: 0.000433 s⁻¹
- kon [9]: 2.68e+06 M⁻¹ s⁻¹
- Kd [10]: 210 pM
- koff [10]: 0.000393 s⁻¹
- kon [10]: 1.87e+06 M⁻¹ s⁻¹
- Kd [11]: 127 pM
- koff [11]: 0.000319 s⁻¹
- kon [11]: 2.51e+06 M⁻¹ s⁻¹
- EC50, increase of intact IGFBP4 in A549 cell supernatant (ELISA) [12]: 800 pM
- EC50, increase of intact IGFBP4 in ADPKD patient derived cystic 9-7 cells (ELISA) [12]: 400 pM
- IC50, decrease of IGFBP4-Ct fragments in 9-7 cells (ELISA) [12]: 20 pM
- IC50, decrease of IGFBP4-Ct fragments in A549 cell supernatant (ELISA) [12]: 800 pM
- IC50, decrease of free-IGF-1 in A549 cell supernatant (ELISA) [12]: 30 pM
- pEC50, increase of intact IGFBP4 in 9-7 cells (ELISA) [12]: 9.41 pEC50
- pEC50, increase of intact IGFBP4 in A549 cell supernatant (ELISA) [12]: 9.09 pEC50
- pIC50, decrease of IGFBP4-Ct fragments in 9-7 cells (ELISA) [12]: 10.6 pIC50
- pIC50, decrease of IGFBP4-Ct fragments in A549 cell supernatant (ELISA) [12]: 9.07 pIC50
- pIC50, decrease of free-IGF-1 in A549 cell supernatant (ELISA) [12]: 10.5 pIC50
- IC50, PAPPA-mediated cleavage of human IGFBP2, cell-free, Western blot [13]: 1390 pM
- EC50 (read off the curve) [7]: ~1000 pM
- PAPP-A cleavage of IGFBP-5 Mean pIC50 [6]: 10.7 pIC50

B6: TPP-12708 (antibody, human IgG1, kappa, V domains shown)
VH: B4 VH with M51I, S60Y, S61A, Q62R, L102M, F108Y, D111E
VL: B4 VL with A50S, A51T, S56L, A93D
- PAPP-A cleavage of IGFBP-4 Mean pIC50 [1]: 10.2 pIC50
- rec. Cyno PAPP-A IGFBP4 pIC50 (G-401 pAKT assay) [3]: 9.7 pIC50
- A549 cells endogenous human PAPP-A pIC50 (A549 pAKT assay) [4]: 9.86 pIC50
- rec. Human PAPP-A IGFBP4 pIC50 (G-401 pAKT assay) [5]: 9.59 pIC50
- rec. Human PAPP-A IGFBP5 pIC50 (G-401 pAKT assay) [5]: 9.92 pIC50
- PAPP-A cleavage of IGFBP-5 Mean pIC50 [6]: 11.1 pIC50

B7: TPP-12792 (antibody, human IgG1, kappa, V domains shown)
VH: QLQLQESGPGLVKPSETLSLTCTVSGGSISSSDYYWGWIRQPPGKGLEWIGSIFYSGSTYYNPSLKSRVTISVDTSKNQFSLKLSSVTAADTAVYYCARATTSSSADYWGQGTLVTVSS
VL: B4 VL with L54V, E91G, A93V, Y94P, F96L
- PAPP-A cleavage of IGFBP-4 Mean pIC50 [1]: 9.53 pIC50
- rec. Cyno PAPP-A IGFBP4 pIC50 (G-401 pAKT assay) [3]: 9.23 pIC50
- A549 cells endogenous human PAPP-A pIC50 (A549 pAKT assay) [4]: 8.92 pIC50
- rec. Human PAPP-A IGFBP4 pIC50 (G-401 pAKT assay) [5]: 9.18 pIC50
- rec. Human PAPP-A IGFBP5 pIC50 (G-401 pAKT assay) [5]: 9.35 pIC50
- PAPP-A cleavage of IGFBP-5 Mean pIC50 [6]: 9.78 pIC50

B8: TPP-12801 (antibody, human IgG1, kappa, V domains shown)
VH: B7 VH
VL: B4 VL with I29V, E91G, A93V, Y94P, F96L
- PAPP-A cleavage of IGFBP-4 Mean pIC50 [1]: 8.96 pIC50
- rec. Cyno PAPP-A IGFBP4 pIC50 (G-401 pAKT assay) [3]: 9.76 pIC50
- A549 cells endogenous human PAPP-A pIC50 (A549 pAKT assay) [4]: 9.33 pIC50
- rec. Human PAPP-A IGFBP4 pIC50 (G-401 pAKT assay) [5]: 9.22 pIC50
- rec. Human PAPP-A IGFBP5 pIC50 (G-401 pAKT assay) [5]: 9.05 pIC50
- PAPP-A cleavage of IGFBP-5 Mean pIC50 [6]: 9.1 pIC50
